Measured values as given in US20210079074A1 (Alector, published 2021).
Substitutions are numbered along the chain they refer to.

T1: huMS4A4A-ECL2 free-peptide (human)
T1 construct: synthetic, free or BSA-conjugated, coated on the plate; also called human MS4A4A ECL2 peptide; huMS4A4A-ELC2 free-peptide
T1 peptide: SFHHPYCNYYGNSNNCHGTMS

B1: anti-MS4A4A antibody 4A-450 NSLF huIgG1 (antibody, V domains shown)
VH: QVQLVQSGSELKKPGASVKVSCKASGYAFTSYGLSWVRQAPGQGLEWMGWINTYSGVPTYAQGFTGRFVFSLDTSVSTAYLQISSLKAEDTAVYYCARTMADYWGQGTLVTVSS
VL: DVVMTQSPLSLPVTLGQPASISCKSSRSLLYSAGKTYLSWFQQRPGQSPRRLIYLVSKLDSGVPDRFSGSGSGTDFTLKISRVEAEDVGVYYCWQGIDFHQTFGGGTKVEIKR
B2: anti-MS4A4A antibody 4A-332 (antibody, human IgG1, V domains shown)
VH: B1 VH with A28I, T99S, M100L, A101V
VL: DVVMTQSPLSLPVTLGQPASISCKSSQSLLYSDGKTYLSWFQQRPGQSPRRLIYLVSKLDSGVPDRFSGSGSGTDFTLKISRVEAEDVGVYYCWQGIDFHQTFGGGTKVEIK
notes: humanized 4A-21; human IgG1/kappa
B3: anti-MS4A4A antibody 4A-202 (antibody, V domains shown)
VH: QVQLQQSGAELARPGASVKLSCKASGYTFTNYWMQWVKQRPGQGLEWIGATHPGHGDTRYTQKFKGKATLSADKSSSTAYMQLSNLASEDSAVYYCAREEVYYGFRSYWYFDVWGRGTLVTVSS
VL: not shown
notes: murine parental; tested as mouse IgG or as human IgG1 Fc chimera (hFc), told under assay
B4: anti-MS4A4A antibody 4A-376 (antibody, V domains shown)
VH: B1 VH with A28I, T99S
VL: B2 VL with Q27R
notes: full human IgG
B5: anti-MS4A4A antibody 4A-351 (antibody, V domains shown)
VH: B1 VH with A28I, M100L
VL: B2 VL with Q27R
notes: full human IgG
B6: anti-MS4A4A antibody 4A-362 (antibody, V domains shown)
VH: B1 VH with A28I, M100L
VL: B2 VL with K58R
notes: full human IgG
B7: anti-MS4A4A antibody 4A-369 (antibody, V domains shown)
VH: B1 VH with A28T, V37I, A101V
VL: B2 VL with D98R
notes: full human IgG
B8: anti-MS4A4A antibody 4A-360 (antibody, V domains shown)
VH: B1 VH with A28I, M100L
VL: B2 VL with S26G, K58R
notes: full human IgG
B9: anti-MS4A4A antibody 4A-373 (antibody, V domains shown)
VH: B1 VH with A28I, M100L, A101V
VL: B2 VL with Q27R
notes: full human IgG
B10: anti-MS4A4A antibody 4A-358 (antibody, V domains shown)
VH: B1 VH with A28I, M100L
VL: B2 VL with D98R
notes: full human IgG
B11: anti-MS4A4A antibody 4A-25 (antibody, V domains shown)
VH: QVTLKESGPGILQPSQTLSLTCSFSGFSLRTSDMGVGWVRQPSGEGLEWLADIWWDDNKYYNPSLKSRLTISKDTSSNQVFLKITSVDTADTATYYCARRANYGNLFDYWGQGTAVTVSS
VL: DIVMTQSLKFMSTSVGDRVSITCKASQNVRSAVAWYQQKPGQSPKVLIYWASNRHTGVPDRFTGSGSGTDFTLTISNVQSEDLADYFCLQHWNYLTFGSGTKLEIK
notes: murine parental; mFc = murine Fc; also called 4A-25.mFc
B12: anti-MS4A4A antibody 4A-214 (antibody, V domains shown)
VH: EVKLEESGGGLVQPGRSMKLSCVASGFTFSNYWMNWVRQSPEKGLEWVAEIRLKSNNYATHYAESVKGRFTISRDDSKSSVYLQMNNLRAEDTGIYYCSSMIIVDYWGQGTTVTVSS
VL: DIVLTQSPASLTVSLGQRATISCRASQSVSSSTYSYLHWYQQRPGQPPKLLIKYASNLESGVPARFSGSGSGTVFTLNIHPVEEEDTATYYCQHSWEIPLTFGAGTKLEMK
notes: murine; mFc = murine Fc; also called 4A-214.mFc
B13: anti-MS4A4A antibody 4A-18 (antibody, V domains shown)
VH: QVQLQQPGTELVKPGASVKLSCKASGYTFTSYWIHWVKQRPGQGLEWIGNINPTNGGTNYNERFKSKATLTVDKSSSTAYMQLSSLTSEDSAVYYCARAYYYGSSLFAYWGQGTLVTVSS
VL: DIVMTQSQKFMSTTVGDRVSITCKASQNVGTAVAWSQQKPGQSPKLLIYSASYRHTGVPDRFTGSGSGTDFTLTITNMQSEDLADYFCQQYSTYPWTFGGGTKLEIK
notes: murine parental; tested as mouse IgG1 or as human IgG1 Fc chimera (hFc), told under assay; also called 4A-18.hFc

Each binder was assayed against T2, human MS4A4A (human, UniProt Q96JQ5 1-239) (assay: cell-based or functional assay).

EC50 of the increase of mTREM2, primary human macrophages [µg/mL]	Binder
0.039	B1

Target: T2, human MS4A4A
Experiment: cell-based or functional assay
Remark: another data set of the same source

EC50 of the increase of sTREM2, primary human macrophages [µg/mL]	Binder
0.069	B1

Each binder was assayed against T3, recombinant MS4A4A soluble polypeptide JS1 (assay: ELISA, 1 ug/ml antibody).
T3 construct: also called JS1.His; loop grafted antigen
Method in brief: (§1)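 Biotinylated antigen 1 μg/ml captured on streptavidin, 1 h; wash x3. Humanized IgG1/kappa Ab (Expi293) 1, 0.33, 0.11 μg/ml, 1 hr RT shaking; wash x3. HRP anti-human kappa 1/2500.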

OD450	Binder
1.91	B2
0.141	B3

These binders were tested against T4, recombinant MS4A4A soluble polypeptide JS5 (assay: ELISA, 1 ug/ml antibody).
T4 construct: also called JS5.His
Method in brief: as §1

ELISA OD	Binder
0.997	B2
1.04	B4
0.953	B5
0.188	B3

The binders below were run against T4, recombinant MS4A4A soluble polypeptide … (assay: ELISA, 0.4 ug/ml antibody).

OD450	Binder
0.908	B6
0.852	B7
0.821	B2
0.797	B8
0.907	B9
0.901	B10
0.977	B4
0.99	B5

Target: T1, huMS4A4A-ECL2 free-peptide
Experiment: peptide ELISA, murine antibody
Method: Coated plates were then blocked with ELISA diluent (PBS+0.5% BSA+0.05% Tween20) for 1-hour, washed 3×300 μL in PBST (PBS+0.05% Tween20, Thermo Cat#28352), and then the antibodies were added to the plate ([…]). After 30 mins incubation (room temperature, with shaking), the plates were washed 3×300 μL in PBST. […] After a final set of washes (3×300 μL in PBST), 50 μL of TMB substrate (BioFx Cat#TMBW-1000-01) was added and the reaction was then quenched after 5-10 mins with 50 μL of stop solution (BioFx Cat#BSTP-1000-01). The quenched reaction wells were detected for absorbance at […] with a BioTek Synergy Microplate Reader using GENS 2.04 software.

binding result	Binder
binds	B3
binds	B11
binds	B12

These binders were tested against T4, recombinant MS4A4A soluble polypeptide … (assay: ELISA, 0.11 ug/ml antibody).
Method: (§2) Anti-MS4A4A antibodies of the present disclosure were tested for their ability to bind to the different recombinant MS4A4A soluble polypeptides, as described in Example 2, as follows. Nucleic acid encoding the VH and VL domains of humanized anti-MS4A4A antibodies of the present disclosure were cloned into pcDNA3.4 vector which contains either the human IgG1 heavy chain constant domain or human kappa constant domain. The humanized anti-MS4A4A antibodies were expressed in Expi293 cells and were purified by Mab select antibody purification resin (GE Healthcare Life Science, cat#17519902) following the manufacture's protocol. ELISA was performed to measure binding of anti-MS4A4A antibodies of the present disclosure the recombinant MS4A4A soluble polypeptides. 1 μg/ml biotinylated antigens were preincubated on the streptavidin-coated ELISA plates (Thermo Scientific, cat#PI15120) for 1 hour. Plates were washed 3 times, followed by the addition of antibodies (1 μg/ml, 0.33 μg/ml, and 0.11 μg/ml antibodies. Plates were incubated at room temperature with shaking for 1 hr, washed 3 times, then 1/2500 dilution of HRP conjugates goat anti human kappa antibodies added (SigmaAldrich cat#. A7164-1ML).

ELISA OD	Binder
0.677	B2
0.83	B4
0.816	B5
0.079	B3

These binders were tested against T4, recombinant MS4A4A soluble polypeptide … (assay: ELISA, 0.33 ug/ml antibody).
Method: as §2

ELISA OD	Binder
0.851	B2
1.03	B4
0.898	B5
0.111	B3

The binders below were run against T2, human MS4A4A (assay: FACS, U937-huMS4A4A, 5 ug/ml).
Method in brief: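 U937 cells expressing human MS4A4A were viability-stained, then 2×10^4 cells/well were incubated with mouse hybridoma IgG or recombinant human IgG1 Fc chimera in PBS/2% FBS/1 mM EDTA. A secondary antibody was then applied on ice for 15 min. Binding was read by flow cytometry as median fluorescence intensity.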

MFI	Binder
382	B13
324	B2
216	B3
648	B11

Target: T2, human MS4A4A
Experiment: FACS, U937-huMS4A4A, 5 ug/ml
Remark: another data set of the same source
Method: Anti-MS4A4A antibodies tested were either mouse IgGs purified from hybridoma supernatant or human IgG1 Fc chimeras produced recombinantly in Expi293 cells. Affinity binding to cells was determined as follows. Briefly, cells were harvested, washed, and labeled with Aqua Live/Dead for viability discrimination. After a wash with PBS, 2×10\hat{ }4 cells were aliquoted per well in 96-well U-bottom plates and incubated with 50 μL of purified anti-MS4A4A antibody at various concentrations (3× dilutions starting at 10 μg/mL) in FACS buffer (PBS+2% FBS+1 mM EDTA). After this primary incubation, the supernatant was removed via centrifugation, washed 2× with 150 μL of ice-cold FACS buffer, and incubated with the appropriate secondary antibody on ice for 15 minutes. Following the secondary antibody incubation, the cells were again washed 2× with ice-cold FACS buffer and resuspended in a final volume of 200 μL of FACS buffer. Flow cytometry analysis was performed on a FACSCanto system (BD Biosciences). Binding data was expressed as Median Fluorescent Intensity (MFI).
These experiments were performed using anti-MS4A4A antibodies at a concentration of 5 μg/ml and were assayed for cell binding by flow cytometry.

MFI	Binder
10000	B6
10100	B7
8820	B2
10300	B8
11900	B9
12100	B10
16700	B4
12200	B5
31700	B3

The binders below were run against T3, recombinant MS4A4A soluble polypeptide … (assay: ELISA, biotin-antigen on streptavidin plate).
Method: as §2

ELISA OD	Binder
0.146	B13
1.16	B3
1.38	B11
1.74	B12

These binders were tested against T5, negative control polypeptide JS4 (assay: ELISA, biotin-antigen on streptavidin plate).
T5 construct: negative control for JS1; also called JS4.His
Method: as §2

ELISA OD	Binder
0.098	B13
0.111	B3
0.091	B11
0.11	B12

The binders below were run against T4, recombinant MS4A4A soluble polypeptide … (assay: ELISA, biotin-antigen on streptavidin plate).
Method: as §2

ELISA OD	Binder
0.099	B13
1.22	B3
1.12	B11
1.62	B12

These binders were tested against T6, recombinant MS4A4A soluble polypeptide JS6 (assay: ELISA, biotin-antigen on streptavidin plate).
T6 construct: also called JS6.His
Method: as §2

ELISA OD	Binder
0.105	B13
1.23	B3
1.26	B11
1.71	B12

The binders below were run against T7, negative control polypeptide JS10 (assay: ELISA, biotin-antigen on streptavidin plate).
T7 construct: negative control for JS5 and JS6; also called JS10.His
Method: as §2

ELISA OD	Binder
0.092	B13
0.084	B3
0.063	B11
0.086	B12
